Assay results: article PMC5021521, “Coordinated recruitment of Spir actin nucleators and myosin V motors to Rab11 vesicle membranes” (eLife, 2016)

Key:
[1] = test system: HeLa cells; test: Subcellular localization by fluorescence microscopy; assay type: cell-based
Method: HeLa cells were seeded on microscope cover glasses and transfected with Myc-epitope-tagged Spir-2 proteins and fluorescently-tagged MyoV and Rab11 proteins as described above. Cells were fixed with paraformaldehyde (3.7% in 1x PBS) for 20 min at 4°C and subsequently permeabilized using 0.2% Triton X-100 (in 1x PBS) for 3.5 min, room temperature. Cells were incubated with anti-c-Myc antibody (9E10, mouse monoclonal, 2 µg/ml, Santa Cruz Biotechnology; RRID: AB_627268) for 1 hr at room temperature and conjugated anti-mouse secondary antibodies (Cy5; from donkey, 3.25 µg/ml, Dianova (RRID: AB_2340820) and TRITC; from donkey, 3.125 µg/ml, Dianova (RRID: AB_2340767)) for 1 hr at room temperature avoiding exposure to light. Finally, cells were mounted on microscope slides with Mowiol and analyzed with a Leica AF6000LX fluorescence microscope, equipped with a Leica HCX PL APO 63x/1.3 GLYC objective and a Leica DFC350 FX digital camera (1392 × 1040 pixels, 6.45 × 6.45 µm pixel size). 3D stacks were recorded and processed with the Leica deconvolution software module. In case of the MyoVa autoregulation/activation experiments, we quantified the MyoVa expression levels. […] In order to clearly distinguish between vesicular and cytoplasmic MyoVa localization, we imaged either high or low expressing cells and determined the sum of pixel gray values per cell as a measure for the MyoVa expression levels. Based on that, we only used cells for the autoregulation analysis having a sum of pixel gray values less than 20 × 10^6 for the expression of GFP-MyoVa-D-FL. Images were recorded using the Leica LASX software and further processed with Adobe Photoshop and subsequently assembled with Adobe Illustrator.

[2] = test system: GFP-MyoVb-GTD; test: Co-immunoprecipitation from HEK293 cells; assay type: binding, Homo sapiens; conditions: anti-Myc co-IP, HEK293, immunoblot
Method: HEK293 cells were transfected with expression vectors encoding Myc-tagged Spir proteins and GFP-tagged myosin Va and myosin Vb fragments. 48 hr post transfection, cells were lysed in lysis buffer (25 mM Tris-HCl pH 7.4, 150 mM NaCl, 5 mM MgCl2, 10% (v/v) glycerol, 0.1% (v/v) Nonidet P-40, 1 mM Phenylmethylsulfonylfluorid (PMSF; Sigma-Aldrich), protease inhibitor cocktail (complete mini, EDTA-free; Roche, Penzberg, Germany)) and centrifuged at 20,000 x g, 4°C, 20 min to remove insoluble debris. The clarified supernatant was incubated with 4 µg anti-c-Myc antibody (9E10, mouse monoclonal; Santa Cruz Biotechnology; RRID: AB_627268) for 1 hr on ice. Subsequently, 40 µl Protein G-Agarose beads (1:1 suspension; Roche) were added and incubated for 2 hr at 4°C on a rotating wheel. Beads were washed with pulldown buffer (25 mM Tris-HCl pH 7.4, 150 mM NaCl, 5 mM MgCl2, 10% (v/v) glycerol, 0.1% (v/v) Nonidet P-40). Bound proteins were eluted with 1x Laemmli buffer and denatured for 10 min at 95°C, then analyzed by immunoblotting.

[3] = co-expression of eGFP-MyoVa-FL and N-terminal Spir-2 fragment

Molecule | subcellular localization in words [1, 3] | subcellular localization in words ([1]; single expression) | co-precipitation / interaction with MyoVb-GTD in words [2]
Myc-Spir-2-KIND-WH2: Myc-hs-Spir2-KIND-WH2 aa 2 - 410 (protein, left off: Myc epitope, end not stated, kept) ARAGSCGGAAAGAGRPEPWELSLEEVLKAYEQPLNEEQAWAVCFQGCRGLRGSPGRRLRDTGDLLLRGDGSVGAREPEAAEPATMVVPLASSEAQTVQSLGFAIYRALDWGLDESEERELSPQLERLIDLMANNDSEDSGCGAADEGYGGPEEEEEAEGVPRSVRTFAQAMRLCAARLTDPRGAQAHYQAVCRALFVETLELRAFLARVREAKEMLQKLREDEPHLETPRAELDSLGHTDWARLWVQLMRELRRGVKLKKVQEQEFNPLPTEFQLTPFEMLMQDIRARNYKLRKVMVDGDIPPRVKKDAHELILDFIRSRPPLKQVSERRLRPLPPKQRSLHEKILEEIKQERRLRPVRGEGWAARGFGSLPCILNACSGDAKSTSCINLSVTDAGGSAQRPRPRVLLK | both cytosolic | even cytoplasmic and nuclear localization | –
Myc-Spir-2-KIND-WH2-GTBM: Myc-hs-Spir2-KIND-WH2-GTBM aa 2 - 437 (protein, UniProt Q8WWL2 2-437, looked up, fragment, Myc tag) ARAGSCGGAAAGAGRPEPWELSLEEVLKAYEQPLNEEQAWAVCFQGCRGLRGSPGRRLRDTGDLLLRGDGSVGAREPEAAEPATMVVPLASSEAQTVQSLGFAIYRALDWGLDESEERELSPQLERLIDLMANNDSEDSGCGAADEGYGGPEEEEEAEGVPRSVRTFAQAMRLCAARLTDPRGAQAHYQAVCRALFVETLELRAFLARVREAKEMLQKLREDEPHLETPRAELDSLGHTDWARLWVQLMRELRRGVKLKKVQEQEFNPLPTEFQLTPFEMLMQDIRARNYKLRKVMVDGDIPPRVKKDAHELILDFIRSRPPLKQVSERRLRPLPPKQRSLHEKILEEIKQERRLRPVRGEGWAARGFGSLPCILNACSGDAKSTSCINLSVTDAGGSAQRPRPRVLLKAPTLAEMEEMNTSEEEESPCGEVTLKR | both proteins localize to vesicle membranes | even cytoplasmic and nuclear localization | –
Spir-1: Myc-hs-Spir1 aa 2 - 757, full-length (protein) MANTVEADGSKDEGYEAADEGPEDEDGEKRSISAIRSYQDVMKICAAHLPTESEAPNHYQAVCRALFAETMELHTFLTKIKSAKENLKKIQEMEKGDESSTDLEDLKNADWARFWVQVMRDLRNGVKLKKVQQRQYNPLPIEYQLTPYEMLMDDIRCKRYTLRKVMVNGDVPPRLKKSAHEVILDFIRSRPPLNPVSARKLKPTPPRPRSLHERILEEIKAERKLRPVSPEEIRRSRLVRPLSMSHSFDLSDVTTPESPKNVGESSMVNGGLTSQTKENGLSAAQQGSAQRKRLLKAPTLAELDSSDSEEEKSLHKSTSSSSASPSLYEDPVLEAMCSRKKPPKFLPISSTPQPERRQPPQRRHSIEKETPTNVRQFLPPSRQSSRSLEEFCYPVECLALTVEEVMHIRQVLVKAELEKYQQYKDVYTALKKGKLCFCCRTRRFSFFTWSYTCQFCKRPVCSQCCKKMRLPSKPYSTLPIFSLGPSALQRGESCSRSEKPSTSHHRPLRSIARFSTKSRSVDKSDEELQFPKELMEDWSTMEVCVDCKKFISEIISSSRRSLVLANKRARLKRKTQSFYMSSAGPSEYCPSERTINEI | – | – | did interact with the GFP-MyoVb-GTD
